Laboratory results as given in patent publication US20220120736A1, “METHODS AND ASSAYS FOR MODULATING GENE TRANSCRIPTION BY MODULATING CONDENSATES” (Whitehead Institute for Biomedical Research, priority 2018, published 2022).
Where no end group is shown, it is not given here.

Key:
[1] = In vitro homotypic droplet formation assay; assay type: physicochemical
Procedure: Slides were then imaged on the Andor Revolution Spinning Disk Confocal using a 100× objective.
The CDK8-Mediator samples were purified as described (Meyer et al., 2008) with modifications. Prior to affinity purification, the P0.5M/QFT fraction was concentrated, to 12 mg/mL, by ammonium sulfate precipitation (35%). […] Affinity purification was carried out as described (Meyer et al., 2008), eluted material was loaded onto a 2.2 mL centrifuge tube containing 2 mL 0.15M KCl HEMG (20 mM HEPES, 0.1 mM EDTA, 2 mM MgCl2, 10% glycerol) and centrifuged at 50K RPM for 4 h at 4° C. This served to remove excess free GST-SREBP and to concentrate the CDK8-Mediator in the final fraction. Prior to droplet assays, purified CDK8-Mediator was concentrated using Microcon-30 kDa Centrifugal Filter Unit with Ultracel-30 membrane (Millipore MRCFOR030) to reach ˜300 nM of Mediator complex. Concentrated CDK8-Mediator was added to the droplet assay to a final concentration of ˜200 nM with or without 10 μM indicated GFP-tagged protein. Droplet reactions contained 10% PEG-8000 and 140 mM salt.
Proteins were stored in 10% glycerol, 50 mM Tris-HCl pH 7.5, 500 mM NaCl, 1 mM DTT. Amicon Ultra Centrifugal filters (30K or 50K MWCO, Millipore) were used to concentrate proteins to desired concentrations. […] Droplet assays were performed in 8-tube PCR strip. […]

MED1-GFP condensates = experiment: FRAP of MED1-GFP condensates in mESCs; assay type: cell-based, mouse; details: ectopic expression in mESCs, untreated
Procedure: ATP depletion: Cells were cultured for 2 hours in glucose-free DMEM (Gibco, 11966025) supplemented with 0.5× B27 supplement and 0.5× N2 supplement followed by incubation with 5 mM 2-deoxy-glucose (Sigma, D6134) and 126 nM Oligomycin (Sigma, 75351) for 2 hours. Cellular ATP levels were measured using a bioluminescence assay (Invitrogen, A22066) following manufacturer's instructions. Cells expressing fluorescently tagged proteins were imaged ever 1 s for 20 s at a 100× objective on the Andor Revolution Spinning Disk Confocal, […] system and Metamorph acquisition software (W.M. Keck Microscopy Facility, MIT). One or two images were pre-bleach and on then approximately 0.5 μm^2 was bleached with the 488 nm laser of the quantifiable laser module (QLM). FRAP was performed on selecting region of interest with 5 pulses of 20 μs each. For FRAP analysis, florescence recovery was measured as fluorescence intensity of photobleached area normalized to the intensity of the unbleached area or the entire nucleus. Fluorescence intensity was measured with FIJI FRAP profiler plugin (code written by Jeff […], adapted from Tony Collins' Macbiophotonics plugins, available here: //worms.zoology.wisc.edu/research/4d/4d.html

MED1-IDR droplets = target: T1, MED1-IDR droplets (Homo sapiens, UniProt Q15648); experiment: In vitro droplet assay, TMR-labeled decapeptides with MED1-IDR-GFP; assay type: biochemical; details: 10 uM each, 125 mM NaCl, 10% PEG-8000
T1 construct: pETEC-MED1-IDR-GFP; Sabari et al., 2018; 948-1574; 6xHis (N); made in house; host or cells: E. coli LOBSTR
Procedure: Recombinant GFP or mCherry fusion proteins were concentrated and desalted to an appropriate protein concentration and 125 mM NaCl using Amicon Ultra centrifugal filters (30K MWCO, Millipore). Recombinant proteins were added to solutions at varying concentrations with indicated final salt and 10% PEG-8000 as crowding agent in Droplet Formation Buffer (50 mM Tris-HCl pH 7.5, 10% glycerol, 1 mM DTT). The protein solution was immediately loaded onto a homemade chamber comprising a glass slide with a coverslip attached by two parallel strips of double-sided tape. Slides were then imaged with an Andor confocal microscope with a 150× objective. Unless indicated, images presented are of droplets settled on the glass coverslip. For experiments with fluorescently labeled polypeptides, the indicated decapeptides were synthesized by the Koch Institute/MIT Biopolymers & Proteomics Core Facility with a TMR fluorescent tag. The protein of interest was added Buffer D with 125 mM NaCl and 10% Peg-8000 with the indicated polypeptide and imaged as described above. For FRAP of in vitro droplets 5 pulses of laser at a 50 us dwell time was applied to the droplet, and recovery was imaged on an Andor microscope every is for the indicated time periods. […] One microliter of this concentrated stock was used in a 10 uL droplet formation reaction to achieve a final concentration of 10 uM.

MED1-IDR-GFP = target: T2, MED1-IDR-GFP (human, UniProt Q15648 948-1574); experiment: in vitro droplet assay with TMR-labeled decapeptide, 125 mM NaCl, 10% PEG-8000
T2 construct: Recombinant from E. coli
Text: All 17 acidic residues in the N-AD and 6 acidic residues in the C-AD were mutated to alanine to generate an OCT4-acidic mutant.

MED1-IDR-mCherry = target: T3, MED1-IDR-mCherry (human, UniProt Q15648 948-1574); experiment: in vitro droplet assay, 10 uM each, 125 mM NaCl, 10% PEG-8000
T3 construct: Recombinant from E. coli; Lacks the LXXLL motifs; also called mCherry-MED1-IDR

HCT116 cells = experiment: FRAP of endogenously tagged mEGFP-β-catenin in HCT116 cells; assay type: cell-based; details: nuclear puncta, constitutive WNT-activated HCT116 cells
Procedure: FRAP was performed on LSM880 Airyscan microscope with 488 nm laser. Bleaching was performed over a rbleach≈1 um using 100% laser power and images were collected every two seconds. Fluorescence intensity was measured using FIJI. Background intensity was subtracted and values are reported relative to pre-bleaching time points.
Custom MATLAB™ scripts were written to process the intensity data, accounting for background photobleaching and normalization to pre-bleach intensity. Post bleach FRAP recovery data was averaged over 9 replicates for each cell-line and condition.

Molecule: GCN4: purified recombinant yeast GCN4-GFP
- concentration at which micron-sized droplets form alone ([1]; 125 mM NaCl, 10% PEG-8000): 40 µM

Molecule: MED1-GFP: full-length human MED1 fused to mEGFP, ectopically expressed in mESCs
- apparent diffusion coefficient (MED1-GFP condensates): 0.36±0.13 μm2/s

Molecule: Poly-E: TMR labeled glutamic acid decapeptide
- incorporation of TMR labeled decapeptide into MED1-IDR droplets (MED1-IDR droplets): incorporated into MED1-IDR droplets
- incorporation of TMR labeled decapeptide into MED1-IDR droplets (MED1-IDR droplets; listed as glutamic acid peptides): concentrated within

Molecule: Poly-P: TMR labeled proline decapeptide (PPPPPPPPPP; also: TMR labeled, site not given here)
- incorporation of TMR labeled decapeptide into MED1-IDR droplets (MED1-IDR droplets): not incorporated into MED1-IDR droplets

Molecule: PPPPPPPPPP (also: TMR fluorescent tag, site not given here, also called proline decapeptide) [TMR-Poly-P Peptide]
- binding result (MED1-IDR-GFP): no binding (tested: 10 uM)

B1: ER-GFP (receptor, not shown: large carriers; small tags and cut ends)
chain: MTMTLHTKASGMALLHQIQGNELEPLNRPQLKIPLERPLGEVYLDSSKPAVYNYPEGAAYEFNAAAAANAQVYGQTGLPYGPGSEAAAFGSNGLGGFPPLNSVSPSPLMLLHPPPQLSPFLQPHGQQVPYYLENEPSGYTVREAGPPAFYRPNSDNRRQGGRERLASTNDKGSMAMESAKETRYCAVCNDYASGYHYGVWSCEGCKAFFKRSIQGHNDYMCPATNQCTIDKNRRKSCQACRLRKCYEVGMMKGGIRKDRRGGRMLKHKRQRDDGEGRGEVGSAGDMRAANLWPSPLMIKRSKKNSLALSLTADQMVSALLDAEPPILYSEYDPTRPFSEASMMGLLTNLADRELVHMINWAKRVPGFVDLTLHDQVHLLECAWLEILMIGLVWRSMEHPGKLLFAPNLLLDRNQGKCVEGMVEIFDMLLATSSRFRMMNLQGEEFVCLKSIILLNSGVYTFLSSTLKSLEEKDHIHRVLDKITDTLIHLMAKAGLTLQQQHQRLAQLLLILSHIRHMSNKGMEHLYSMKCKNVVPLYDLLLEMLDAHRLHAPTSRGGASVEETDQSHLATAGSTSSHSLQKYYITGEAEGFPATV
notes: Tested without ligand, with estrogen (beta-estradiol) and with tamoxifen (4-hydroxytamoxifen); also called estrogen receptor; GFP labeled ER
- binding result (MED1-IDR-mCherry): binds

B2: MED1-IDR: recombinant GFP fusion of the MED1 intrinsically disordered region (948-1574) (protein)
chain: EHHSGSQGPLLTTGDLGKEKTQKRVKEGNGTSNSTLSGPGLDSKPGKRSRTPSNDGKSKDKPPKRKKADTEGKSPSHSSSNRPFTPPTSTGGSKSPGSAGRSQTPPGVATPPIPKITIQIPKGTVMVGKPSSHSQYTSSGSVSSSGSKSHHSHSSSSSSSASTSGKMKSSKSEGSSSSKLSSSMYSSQGSSGSSQSKNSSQSGGKPGSSPITKHGLSSGSSSTKMKPQGKPSSLMNPSLSKPNISPSHSRPPGGSDKLASPMKPVPGTPPSSKAKSPISSGSGGSHMSGTSSSSGMKSSSGLGSSGSLSQKTPPSSNSCTASSSSFSSSGSSMSSSQNQHGSSKGKSPSRNKKPSLTAVIDKLKHGVVTSGPGGEDPLDGQMGVSTNSSSHPMSSKHNMSGGEFQGKREKSDKDKSKVSTSGSSVDSSKKTSESKNVGSTGVAKIIISKHDGGSPSIKAKVTLQKPGESSGEGLRPQMASSKNYGSPLISGSTPKHERGSPSHSKSPAYTPQNLDSESESGSSIAEKSYQNSPSSDDGIRPLPEYSTEKHKKHKKEKKKVKDKDRDRDRDKDRDKKKSHSIKPESWSKSPISSDQSLSMTSNTILSADRPSRLSPDFMIGEEDDDLM
modifications: left off: large carriers; small tags and cut ends
- lowest concentration tested, at which droplets were observed ([1]; droplet formation buffer with 10% PEG-8000, range tested 0.6 to 20 μM): 0.6 µM

B3: β-catenin: mEGFP-tagged β-catenin at the endogenous locus in HCT116 cells (protein)
chain: ATQADLMELDMAMEPDRKAAVSHWQQQSYLDSGIHSGATTTAPSLSGKGNPEEEDVDTSQVLYEWEQGFSQSFTQEQVADIDGQYAMTRAQRVRAAMFPETLDEGMQIPSTQFDAAHPTNVQRLAEPSQMLKHAVVNLINYQDDAELATRAIPELTKLLNDEDQVVVNKAAVMVHQLSKKEASRHAIMRSPQMVSAIVRTMQNTNDVETARCTAGTLHNLSHHREGLLAIFKSGGIPALVKMLGSPVDSVLFYAITTLHNLLLHQEGAKMAVRLAGGLQKMVALLNKTNVKFLAITTDCLQILAYGNQESKLIILASGGPQALVNIMRTYTYEKLLWTTSRVLKVLSVCSSNKPAIVEAGGMQALGLHLTDPSQRLVQNCLWTLRNLSDAATKQEGMEGLLGTLVQLLGSDDINVVTCAAGILSNLTCNNYKNKMMVCQVGGIEALVRTVLRAGDREDITEPAICALRHLTSRHQEAEMAQNAVRLHYGLPVVVKLLHPPSHWPLIKATVGLIRNLALCPANHAPLREQGAIPRLVQLLVRAHQDTQRRTSMGGTQQQFVEGVRMEEIVEGCTGALHILARDVHNRIVIRGLNTIPLFVQLLYSPIENIQRVAAGVLCELAQDKEAAEAIEAEGATAPLTELLHSRNEGVATYAAAVLFRMSEDKPQDYKKRLSVELTSSLFRTEPMAWNETADLGLDIGAQGEPLGYRQDDPSYRSFHSGGYGQDALGMDPMMEHEMGGHHPGADYPVDGLPDLGHAQDLMDGLPPGDSNQLAWFDTDL
modifications: left off: large carriers; small tags and cut ends
notes: mEGFP-tagged β-catenin at the endogenous locus in HCT116 cells
- approximate apparent diffusion coefficient (HCT116 cells): ~0.004±0.003 μm^2/s
